Where two headings read alike, the source gives them in different places.

Data on two molecules can be found in PMC11485400 (Alzheimer's & Dementia, 2024).

B1: human recombinant PrP^C 23-230 (domain or fragment)
chain: not shown

What all share (assay): SPR
The target in assay [1] is T1, synthetic human Aβ1-40, oligomerised (human, UniProt P05067).
Assay [2] deals with T2, synthetic human Aβ1-42, oligomerised (human, UniProt P05067).
The target of assay [3] is B1.
Assay [4] addresses T1, synthetic human Aβ1-40, oligomerised. This is another data set of the same source.
The target in assay [5] is T2, synthetic human Aβ1-42, oligomerised. The source holds these as a separate data set.

Turning to B1, the Kd in assay [1] was 28.8 nM; in assay [2], 11.3 nM.

B2: caveolin-1 (Cav-1) (natural protein)
chain: MSGGKYVDSEGHLYTVPIREQGNIYKPNNKAMADELSEKQVYDAHTKEIDLVNRDPKHLNDDVVKIDFEDVIAEPEGTHSFDGIWKASFTTFTVTKYWFYRLLSALFGIPMALIWGIYFAILSFLHIWAVVPCIKSFLIEIQCISRVYSIYVHTVCDPLFEAVGKIFSNVRINLQKEI
On to B2, for which the dissociation constant Kd worked out at 14.1 nM in assay [3], 11.4 nM in assay [4] and 13 nM in assay [5].
